From US20190112365A1 (EISAI R AND D MANAGEMENT, published 2019)
Changes are numbered by the printed parent chain. Where “and” joins values, the source holds several entries; their conditions need not be identical. Identical values can stand only once.

B1: 7G6-HCzu1-LCzu1 (antibody, human IgG1, kappa, V domains shown)
VH: QVQLVQSGAEVKKPGASVKVSCKASGYTFTTYWITWVRQAPGQGLEWMGDIYPGSSICNYNEKFKSRVTMTRDTSTSTVYMELSSLRSEDTAVYYCAREDGYDAWFAYWGQGTLVTVSS
VL: DVVMTQSPLSLPVTLGQPASISCRSSQSILHSNGNTYLEWFQQRPGQSPRRLIYKVSNRFSGVPDRFSGSGSGTDFTLKISRVEAEDVGVYYCFQGSHVPFTFGQGTKLEIKR
notes: humanized, human IgG1 kappa
B2: 7G6-HCzu5-LCzu6 (antibody, human IgG1, kappa, V domains shown)
VH: B1 VH with C58S, R72V, V79A
VL: B1 VL with F41Y, R51L, Y54S
notes: humanized, human IgG1 kappa
B3: 7G6-HCzu7-LCzu6 (antibody, human IgG1, kappa, V domains shown)
VH: B1 VH with C58S, N61A, E62Q, K65Q, S66G, R72V
VL: B1 VL with F41Y, R51L, Y54S
notes: humanized, human IgG1 kappa
B4: 7G6-HCzu4-LCzu1 (antibody, human IgG1, kappa, V domains shown)
VH: B1 VH with N61A, E62Q, K65Q, S66G, R72V, V79A
VL: B1 VL
notes: humanized, human IgG1 kappa
B5: 7G6-HCzu5-LCzu2 (antibody, human IgG1, kappa, V domains shown)
VH: B1 VH with C58S, R72V, V79A
VL: B1 VL with F41Y, R51L, Y54C
notes: humanized, human IgG1 kappa
B6: 7G6-HCzu6-LCzu6 (antibody, human IgG1, kappa, V domains shown)
VH: B1 VH with C58S, R72V
VL: B1 VL with F41Y, R51L, Y54S
notes: humanized, human IgG1 kappa
B7: 7G6-HCzu3-LCzu2 (antibody, human IgG1, kappa, V domains shown)
VH: B1 VH with R72V, V79A
VL: B1 VL with F41Y, R51L, Y54C
notes: humanized, human IgG1 kappa
B8: 7G6-HCzu2-LCzu1 (antibody, human IgG1, kappa, V domains shown)
VH: B1 VH with R72V
VL: B1 VL
notes: humanized, human IgG1 kappa
B9: 7G6-HCzu5-LCzu22 (antibody, human IgG1, kappa, V domains shown)
VH: B1 VH with C58S, R72V, V79A
VL: B1 VL with F41Y, Y54S
notes: humanized, human IgG1 kappa; also called 7G6-LCzu22
B10: 7G6-HCzu1-LCzu2 (antibody, human IgG1, kappa, V domains shown)
VH: B1 VH
VL: B1 VL with F41Y, R51L, Y54C
notes: humanized, human IgG1 kappa
B11: 7G6-HCzu9-LCzu6 (antibody, human IgG1, kappa, V domains shown)
VH: B1 VH with N61A, E62Q, K65Q, S66G, R72V
VL: B1 VL with F41Y, R51L, Y54S
notes: humanized, human IgG1 kappa
B12: 7G6-HCzu3-LCzu6 (antibody, human IgG1, kappa, V domains shown)
VH: B1 VH with R72V, V79A
VL: B1 VL with F41Y, R51L, Y54S
notes: humanized, human IgG1 kappa
B13: 7G6-HCzu5-LCzu21 (antibody, human IgG1, kappa, V domains shown)
VH: B1 VH with C58S, R72V, V79A
VL: B1 VL with R51L, Y54S
notes: humanized, human IgG1 kappa
B14: 7G6-HCzu4-LCzu2 (antibody, human IgG1, kappa, V domains shown)
VH: B1 VH with N61A, E62Q, K65Q, S66G, R72V, V79A
VL: B1 VL with F41Y, R51L, Y54C
notes: humanized, human IgG1 kappa
B15: 7G6-HCzu5-LCzu10 (antibody, human IgG1, kappa, V domains shown)
VH: B1 VH with C58S, R72V, V79A
VL: B1 VL with L30V
notes: humanized, human IgG1 kappa
B16: 7G6-HCzu3-LCzu1 (antibody, human IgG1, kappa, V domains shown)
VH: B1 VH with R72V, V79A
VL: B1 VL
notes: humanized, human IgG1 kappa
B17: 7G6-HCzu5-LCzu8 (antibody, human IgG1, kappa, V domains shown)
VH: B1 VH with C58S, R72V, V79A
VL: B1 VL with L30V, Y54S
notes: humanized, human IgG1 kappa
B18: 7G6-HCzu5-LCzu7 (antibody, human IgG1, kappa, V domains shown)
VH: B1 VH with C58S, R72V, V79A
VL: B1 VL with Y54S
notes: humanized, human IgG1 kappa
B19: 7G6-HCzu2-LCzu2 (antibody, human IgG1, kappa, V domains shown)
VH: B1 VH with R72V
VL: B1 VL with F41Y, R51L, Y54C
notes: humanized, human IgG1 kappa
B20: 7G6-HCzu10-LCzu6 (antibody, human IgG1, kappa, V domains shown)
VH: B1 VH with N61A, E62Q, K65Q, S66G
VL: B1 VL with F41Y, R51L, Y54S
notes: humanized, human IgG1 kappa
B21: 7G6-HCzu17-LCzu12 (antibody, human IgG1, kappa, V domains shown)
VH: EVQLLESGGGLVQPGGSLRLSCAASGYTFTTYWITWVRQAPGKGLEWVSDIYPGSSICNYNEKFKSRFTISVDNSKNTLYLQMNSLRAEDTAVYYCAREDGYDAWFAYWGQGTLVTVSS
VL: DVQMTQSPSSLSASVGDRVTITCRSSQSILHSNGNTYLEWYQQKPGKAPKLLICKVSNRFSGVPSRFSGSGSGTDFTLTISSLQPEDFATYYCFQGSHVPFTFGQGTKLEIKR
notes: humanized, human IgG1 kappa
B22: 7G6-HCzu12-LCzu14 (antibody, human IgG1, kappa)
heavy: not shown
light: DIQMTQSPSSLSASVGDRVTITCRSSQSILHSNGNTYLEWYQQKPGKAPKLLICKVSNRFSGVPSRFSGSGSGTDFTLTISSLQPEDFATYYCFQGSHVPFTFGQGTKLEIKRTVAAPSVFIFPPSDEQLKSGTASVVCLLNNFYPREAKVQWKVDNALQSGNSQESVTEQDSKDSTYSLSSTLTLSKADYEKHKVYACEVTHQGLSSPVTKSFNRGEC
notes: humanized, human IgG1 kappa
B23: 7G6-HCzu12-LCzu15 (antibody, human IgG1, kappa, V domains shown)
VH: B21 VH with S49G, N77S, L79A
VL: B21 VL with C54S
notes: humanized, human IgG1 kappa
B24: 7G6-HCzu12-LCzu12 (antibody, human IgG1, kappa)
heavy: not shown
light: B22 light with I2V
notes: humanized, human IgG1 kappa
B25: 7G6-HCzu11-LCzu11 (antibody, human IgG1, kappa, V domains shown)
VH: B21 VH with V72R, R98K
VL: B21 VL with V2I, C54Y
notes: humanized, human IgG1 kappa
B26: 7G6-HCzu12-LCzu16 (antibody, human IgG1, kappa, V domains shown)
VH: B21 VH with S49G, N77S, L79A
VL: B21 VL with L30V, C54S
notes: humanized, human IgG1 kappa
B27: 7G6-HCzu12-LCzu13 (antibody, human IgG1, kappa)
heavy: not shown
light: B22 light with I2V, C54Y
notes: humanized, human IgG1 kappa
B28: 7G6-HCzu13-LCzu12 (antibody, human IgG1, kappa, V domains shown)
VH: B21 VH with S49G, N61A, E62D, K63S, F64V, S66G, N77S, L79A
VL: B21 VL
notes: humanized, human IgG1 kappa
B29: 7G6-HCzu12-LCzu11 (antibody, human IgG1, kappa)
heavy: not shown
light: B22 light with C54Y
notes: humanized, human IgG1 kappa

Each binder was assayed against T1, Human Tau 2N4R, wild type, recombinant full length (human, UniProt P10636 2-758) (assay: SPR BIAcore, mAb captured by anti-human IgG, Tau flowed, 1:1 Langmuir).
T1 construct: Full length 2N4R isoform; monomer in SPR and ELISA; heparin-induced aggregates or seeds in the functional assays; also called Tau441; Tau-441
Protocol: (§1) All experiments were performed using a BIAcore™ T-100 instrument (GE Healthcare). 10 μL anti-human IgG (monoclonal mouse anti-human Fc) from human antibody capture kit (GE Healthcare) was diluted to 25 μL/mL in 200 μL final immobilization buffer (10 mM sodium acetate, pH 5.0). The flow rate was set to 5 μL/min, flowpath 1. Fifty μL N-hydroxysuccinamide (NETS) and 50 μL 1-ethyl-3-(3-dimethylaminopropyl) carbidiimide (EDC) were mixed and injected for 420 sec to activate the CM5 chip surface. The diluted antibody was injected for 360 seconds followed by 1 M ethanolamine for 420 seconds. The flowpath was then switched to flowpath 2. A new EDC/NHS mixture was prepared and the procedure was repeated for flow cell 2. The surface was conditioned by 2 injections of 30 sec using flowpath 1, 2 at 30 μL/min of 3M MgCl₂. For the anti-mouse surface, 10 μL anti-mouse IgG (polyclonal rabbit anti-mouse IgG) from mouse antibody capture kit (GE Healthcare) was diluted to 30 μL/mL in 324 μL final immobilization buffer (10 mM sodium acetate, pH 5.0). The flow rate was set to 5 μL/min, flowpath 3. Fifty μL NHS and 50 μL EDC were mixed and injected for 420 sec to activate the chip surface. The diluted antibody was injected for 420 sec. 1 M ethanolamine was injected for 420 sec. Flow path was switched to flowpath 4. A new EDC/NHS mixture was prepared and the procedure was repeated for flow cell 4. The surface was conditioned by 2 injections of 30 sec using flowpath 3, 4 at 30 μL/min of 10 mM glycine, pH 1.7.
(§2) Binding of humanized and mouse antibodies were analyzed by surface plasmon resonance (BIAcore™) to determine their relative association rates (kₐ), dissociation rates (kd), and equilibrium binding constants (KD). Anti-mouse or anti-human antibodies were immobilized on a CM5 chip and sample mAbs were captured on the chip. 2N4R Tau was flowed over the chip and binding observed. The binding constants kₐ, kd, and KD were determined using a 1:1 Langmuir fitting model.

T1 sequence (P10636 other isoform, or with tags, fused parts or gaps limits assumed): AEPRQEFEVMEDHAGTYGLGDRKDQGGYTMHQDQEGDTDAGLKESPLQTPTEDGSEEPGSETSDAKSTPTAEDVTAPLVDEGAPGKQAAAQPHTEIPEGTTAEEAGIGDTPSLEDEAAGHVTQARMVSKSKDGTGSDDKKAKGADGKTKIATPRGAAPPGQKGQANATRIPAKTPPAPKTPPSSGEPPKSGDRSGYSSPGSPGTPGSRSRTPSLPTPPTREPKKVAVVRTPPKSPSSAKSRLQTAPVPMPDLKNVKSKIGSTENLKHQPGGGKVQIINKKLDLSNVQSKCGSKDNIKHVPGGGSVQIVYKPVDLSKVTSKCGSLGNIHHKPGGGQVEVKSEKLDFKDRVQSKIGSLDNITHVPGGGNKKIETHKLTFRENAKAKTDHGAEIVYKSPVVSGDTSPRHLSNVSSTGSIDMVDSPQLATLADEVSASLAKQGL

| Binder | Kd | koff | kon |
| --- | --- | --- | --- |
| B1 | 0.202 nM | 0.000519 s⁻¹ | 2.57e+06 M⁻¹ s⁻¹ |
| B2 | 0.0961 nM | 0.000206 s⁻¹ | 2.14e+06 M⁻¹ s⁻¹ |
| B3 | 0.109 nM | 0.000226 s⁻¹ | 2.08e+06 M⁻¹ s⁻¹ |
| B4 | 0.237 nM | 0.000847 s⁻¹ | 3.57e+06 M⁻¹ s⁻¹ |
| B5 | 0.127 nM | 0.000237 s⁻¹ | 1.86e+06 M⁻¹ s⁻¹ |
| B6 | 0.0961 nM | 0.000213 s⁻¹ | 2.21e+06 M⁻¹ s⁻¹ |
| B7 | 0.121 nM | 0.000242 s⁻¹ | 2e+06 M⁻¹ s⁻¹ |
| B8 | 0.226 nM | 0.00064 s⁻¹ | 2.83e+06 M⁻¹ s⁻¹ |
| B9 | 1.48 nM | 0.00277 s⁻¹ | 1.88e+06 M⁻¹ s⁻¹ |
| B10 | 0.11 nM | 0.000241 s⁻¹ | 2.2e+06 M⁻¹ s⁻¹ |
| B11 | 0.0938 nM | 0.000193 s⁻¹ | 2.06e+06 M⁻¹ s⁻¹ |
| B12 | 0.12 nM | 0.000227 s⁻¹ | 1.9e+06 M⁻¹ s⁻¹ |
| B13 | 0.095 nM | 0.000278 s⁻¹ | 2.93e+06 M⁻¹ s⁻¹ |
| B14 | 0.121 nM | 0.000242 s⁻¹ | 2e+06 M⁻¹ s⁻¹ |
| B15 | 0.162 nM | 0.00053 s⁻¹ | 3.27e+06 M⁻¹ s⁻¹ |
| B16 | 0.309 nM | 0.000856 s⁻¹ | 2.77e+06 M⁻¹ s⁻¹ |
| B17 | 0.0828 nM | 0.000298 s⁻¹ | 3.6e+06 M⁻¹ s⁻¹ |
| B18 | 0.0968 nM | 0.000304 s⁻¹ | 3.14e+06 M⁻¹ s⁻¹ |
| B19 | 0.101 nM | 0.000214 s⁻¹ | 2.12e+06 M⁻¹ s⁻¹ |
| B20 | 0.108 nM | 0.000213 s⁻¹ | 1.98e+06 M⁻¹ s⁻¹ |

Target: T1, Human Tau 2N4R, wild type, recombinant …
Assay: as above
Remark: another data set of the same source
Protocol: as §1
as §2, with “BIAcore™” for “surface plasmon resonance (BIAcore™)”, “(ka),” for “(kₐ),”, “model. Both 7G6-HCzu12-based mAbs had similar kₐ and kd values (Table 8). However, the kₐ of 7G6-HCzu11 was decreased, though the kd was unaffected. Therefore, human residues in the Vh3 framework impact binding to Tau.” for “model.”

| Binder | Kd | koff | kon |
| --- | --- | --- | --- |
| B21 | 0.073 nM | 0.000124 s⁻¹ | 1.7e+06 M⁻¹ s⁻¹ |
| B22 | 0.0689 nM | 0.000119 s⁻¹ | 1.73e+06 M⁻¹ s⁻¹ |
| B23 | 0.0959 nM | 0.000141 s⁻¹ | 1.47e+06 M⁻¹ s⁻¹ |
| B24 | 0.129 nM and 0.0875 nM | 0.000193 s⁻¹ and 0.000151 s⁻¹ | 1.49e+06 M⁻¹ s⁻¹ and 1.72e+06 M⁻¹ s⁻¹ |
| B25 | 0.205 nM | 0.000175 s⁻¹ | 853000 M⁻¹ s⁻¹ |
| B26 | 0.099 nM | 0.000148 s⁻¹ | 1.49e+06 M⁻¹ s⁻¹ |
| B27 | 0.0888 nM | 0.000124 s⁻¹ | 1.4e+06 M⁻¹ s⁻¹ |
| B28 | 0.168 nM | 0.000239 s⁻¹ | 1.42e+06 M⁻¹ s⁻¹ |
| B29 | 0.132 nM | 0.000181 s⁻¹ | 1.38e+06 M⁻¹ s⁻¹ |
